The values below come from patent publication US20260055430, “[…] WITH ALTERED […] ACTIVITY” (Flagship Pioneering Innovations VI, LLC, published 2026).

Series [1] has as its system Int22 (Integrase 1207). As to the kind of experiment: cell_activity. Particulars: ~500 bp region template.
For series [2], the system named is Int182 (Integrase 1227). As to the kind of experiment: cell_activity. Particulars: ~500 bp region template.
Series [3] has as its system Int30 (Integrase 436). Nature of the series: cell_activity. To be noted: ~500 bp region template.
Series [4] addresses T1, Int94 (Integrase 1219) (UniProt A7GVM1).
T1 sequence: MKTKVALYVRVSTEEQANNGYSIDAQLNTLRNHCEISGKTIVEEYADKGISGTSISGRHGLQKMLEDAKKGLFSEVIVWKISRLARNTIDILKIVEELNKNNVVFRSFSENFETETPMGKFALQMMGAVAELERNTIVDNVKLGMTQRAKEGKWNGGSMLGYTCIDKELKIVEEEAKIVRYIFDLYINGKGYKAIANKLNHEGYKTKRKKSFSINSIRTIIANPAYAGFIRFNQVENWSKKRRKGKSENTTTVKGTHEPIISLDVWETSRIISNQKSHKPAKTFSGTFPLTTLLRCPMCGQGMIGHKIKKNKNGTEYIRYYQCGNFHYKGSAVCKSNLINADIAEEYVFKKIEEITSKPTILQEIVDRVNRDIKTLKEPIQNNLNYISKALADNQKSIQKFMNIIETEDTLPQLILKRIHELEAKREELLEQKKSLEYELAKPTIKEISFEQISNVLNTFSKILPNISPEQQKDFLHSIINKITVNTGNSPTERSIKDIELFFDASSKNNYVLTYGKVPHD
As to the kind of experiment: cell_activity. Particulars: ~500 bp region template.

For series [5], the system named is Int106 (Integrase 1223). As to the kind of experiment: cell_activity. Particulars: ~500 bp region template.
Series [6] has as its system Int17 (Integrase 1206). Nature of the series: cell_activity. Particulars: ~500 bp region template.
The subject of series [7] is Int171 (Integrase 450). As to the kind of experiment: cell_activity. Particulars: ~500 bp region template.
The subject of series [8] is Int138 (Integrase 1116). Nature of the series: cell_activity. Particulars: HEK293T, template with ~500 bp region containing attP; attP from Table 2.
Series [9] deals with Int29/Int105 (Integrase 477). As to the kind of experiment: cell_activity. To be noted: Int29; same accession as Int105 gave 0.77.
The subject of series [10] is Int104 (Integrase 1222). Nature of the series: cell_activity. To be noted: ~500 bp region template.
Series [11] has as its target T2, Int192 (Integrase 165) (UniProt C9DC17 C9DC17:1-507).
T2 sequence: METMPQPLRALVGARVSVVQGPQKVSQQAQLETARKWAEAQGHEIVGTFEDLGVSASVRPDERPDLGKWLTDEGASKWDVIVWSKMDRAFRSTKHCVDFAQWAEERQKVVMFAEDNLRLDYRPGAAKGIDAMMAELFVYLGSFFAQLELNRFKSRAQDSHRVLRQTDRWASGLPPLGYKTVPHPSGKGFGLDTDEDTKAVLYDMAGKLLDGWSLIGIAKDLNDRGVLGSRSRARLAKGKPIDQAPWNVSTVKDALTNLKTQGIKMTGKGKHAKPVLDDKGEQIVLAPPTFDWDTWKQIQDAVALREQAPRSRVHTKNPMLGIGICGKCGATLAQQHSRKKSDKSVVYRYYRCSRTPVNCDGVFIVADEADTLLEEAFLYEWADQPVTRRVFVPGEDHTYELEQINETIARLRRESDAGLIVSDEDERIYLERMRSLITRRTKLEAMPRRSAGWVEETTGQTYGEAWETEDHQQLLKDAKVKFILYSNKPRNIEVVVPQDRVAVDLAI
Nature of the series: cell_activity; ~500 bp region template.

For series [12], the target named is T3, Int103 (Integrase 1221) (UniProt Q928V6 Q928V6:1-452).
T3 sequence: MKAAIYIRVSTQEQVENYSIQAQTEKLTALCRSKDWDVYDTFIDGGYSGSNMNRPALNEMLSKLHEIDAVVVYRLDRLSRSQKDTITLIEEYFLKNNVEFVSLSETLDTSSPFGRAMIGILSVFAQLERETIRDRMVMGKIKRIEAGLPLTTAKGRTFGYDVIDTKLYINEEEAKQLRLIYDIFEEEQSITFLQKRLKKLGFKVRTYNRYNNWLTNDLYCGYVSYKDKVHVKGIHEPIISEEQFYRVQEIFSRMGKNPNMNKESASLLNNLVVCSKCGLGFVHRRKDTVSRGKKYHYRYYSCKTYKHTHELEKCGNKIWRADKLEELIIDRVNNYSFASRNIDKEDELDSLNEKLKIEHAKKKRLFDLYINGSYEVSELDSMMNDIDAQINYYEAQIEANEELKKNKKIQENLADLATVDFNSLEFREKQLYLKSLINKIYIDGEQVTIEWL
Nature of the series: cell_activity; ~500 bp region template.

Series [13] addresses T4, Int60 (Integrase 27) (UniProt Q858X3 Q858X3:1-594).
T4 sequence: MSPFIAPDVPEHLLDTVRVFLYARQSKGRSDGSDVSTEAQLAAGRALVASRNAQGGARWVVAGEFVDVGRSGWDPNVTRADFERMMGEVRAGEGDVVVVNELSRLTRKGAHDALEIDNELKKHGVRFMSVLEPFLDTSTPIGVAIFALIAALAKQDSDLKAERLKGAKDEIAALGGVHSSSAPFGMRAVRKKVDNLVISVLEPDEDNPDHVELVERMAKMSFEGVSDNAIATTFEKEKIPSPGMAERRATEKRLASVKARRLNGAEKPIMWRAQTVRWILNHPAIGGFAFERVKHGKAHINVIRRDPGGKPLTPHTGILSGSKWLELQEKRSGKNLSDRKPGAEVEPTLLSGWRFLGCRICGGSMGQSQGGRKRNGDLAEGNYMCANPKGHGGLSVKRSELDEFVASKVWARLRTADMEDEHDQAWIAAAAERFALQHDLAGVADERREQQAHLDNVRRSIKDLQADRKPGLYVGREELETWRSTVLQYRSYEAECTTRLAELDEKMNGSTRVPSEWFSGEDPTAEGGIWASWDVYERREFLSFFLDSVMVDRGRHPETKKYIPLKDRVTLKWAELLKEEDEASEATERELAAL
Nature of the series: cell_activity; ~500 bp region template.

As to “AAAAGAATCCAAATTATCGTACTTTAACATAGTGAATACTGTCCATCATGTATAAAAGTACG (double strand) [1207 attP]”, the activity in series [1] amounted to 0.16 % GFP+.
With “AAATATAACCTGTGTATTGAAACAAGGTGCTGATAAAACCCTTTCATAAACACAAGTAAATA (double strand) [1227 attP]”, in [2], the activity is 0.22 % GFP+.
Regarding “ATTTTAGGTATATGATTTTGTTTATTAGTGTAAATAACACTATGTACCTAAAAT (double strand) [436 attP]”, the activity in [3] was 10.1 % GFP+.
“CAATAACGGTTGTATTTGTAGAACTTGACCAGTTGTTTTAGTAACATAAATACAACTCCGAATA (double strand) [1219 attP]”: the activity in [4] came to 0.23 % GFP+.
In series [5], “CAATGAAAAACTAGGCATGTAGAAGTTGTTTGT (double strand) [1223 attP]” showed an activity of 1.77 % GFP+.
“GTTAGGTGTATATCATACCTAACGCAATTCATTACATCACATATGTTATACACCTACTTTAA (double strand) [1206 attP]” showed an activity in series [6] of 0.123 % GFP+.
Regarding “TATTAGTATAGAAGAAAGCTCTCAGCACACGTGGAGTGTGTTGCTCTCTGCTCGTAAAGCCT (double strand) [450 attP]”, the activity in series [7] was 0.16 % GFP+.
In turn, “TGTAGTAAGTATCTTAATATACAGCTTTATCTGTTTTTTAAGATACTTACTACTTT (double strand) [1116 attP]” yielded an activity in series [8] of 27.6 % GFP+.
The molecule “TTCCTCGTTTTCTCTCGTTGGAAGAAGAAGAAACGAGAAA (double strand) [477 attP]” had an activity in [9] of 0.91 % GFP+.
“TTCCTCGTTTTCTCTCGTTGGACGGAAACGAATCGAGAAA (double strand) [1222 attP]”: the activity in series [10] was found to be 0.58 % GFP+.

B1: 165 attP (dsDNA)
DNA 1: TAGTTTCCAATGTTACAGGAACTGCTGGCAGAATCCAACACATTGGAAGTCG
DNA 2: CGACTTCCAATGTGTTGGATTCTGCCAGCAGTTCCTGTAACATTGGAAACTA
For the molecule B1, the activity in series [11] stood at 0.57 % GFP+.

B2: 1221 attP (dsDNA)
DNA 1: GTTTAGTATCTCGTTATCTCTCGTTGGAGGGAGAAGAAACGGGATACCAAAA
DNA 2: TTTTGGTATCCCGTTTCTTCTCCCTCCAACGAGAGATAACGAGATACTAAAC
In [12], B2 came in with an activity of 0.22 % GFP+.

B3: 27 attP (dsDNA)
DNA 1: GGTGCTGGGTTGTTGTCTCTGGACAGTGATCCATGGGAAACTACTCAGCACC
DNA 2: GGTGCTGAGTAGTTTCCCATGGATCACTGTCCAGAGACAACAACCCAGCACC
In turn, B3 displayed an activity in series [13] of 0.17 % GFP+.
